Assay results: patent US20210214440A1

Target: CD3 (UniProt P07766)
Test: method and format not stated

Kd: 80 nM
B1: CD3B450 (antibody, V domains shown)
VH: QVQLQQSGPGLVKPSQTLSLTCAISGDSVFNNNAAWSWIRQSPSRGLEWLGRTYYRSKWLYDYAVSVKSRITINPDTSKNQFSLQLNSVTPEDTAVYYCARGYSSSFDYWGQGTLVTVSS
VL: QSALTQPASVSGSPGQSITISCTGTSSNIGTYKFVSWYQQHPGKAPKVMIYEVSKRPSGVSNRFSGSKSGNTASLTISGLQAEDEADYYCVSYAGSGTLLFGGGTKLTVL
